# Test results from US20160251440A1 (Ablynx, published 2016).
# Numbering of substitutions follows the chain as printed. Names may count otherwise. Read-outs that look alike come from different tables or passages of the source.
# T1: recombinant IL-3Rα ectodomain (human, UniProt P26951 19-305)
# T1 construct: extracellular domain; also called recombinant IL-3Ra; biotinylated-IL-3Rα ectodomain
# T1 sequence (looked up): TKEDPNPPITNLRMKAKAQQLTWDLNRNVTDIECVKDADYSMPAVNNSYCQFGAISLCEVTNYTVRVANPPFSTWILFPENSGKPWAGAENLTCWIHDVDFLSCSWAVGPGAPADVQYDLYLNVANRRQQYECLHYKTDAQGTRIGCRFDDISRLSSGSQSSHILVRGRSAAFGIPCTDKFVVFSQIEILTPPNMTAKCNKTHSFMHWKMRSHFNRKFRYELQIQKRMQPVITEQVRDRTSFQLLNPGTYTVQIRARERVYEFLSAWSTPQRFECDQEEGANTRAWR
# T2: human CEACAM5, cell-expressed (human, UniProt P06731 35-685)
# T2 construct: whole, on cells
# T2 sequence (looked up): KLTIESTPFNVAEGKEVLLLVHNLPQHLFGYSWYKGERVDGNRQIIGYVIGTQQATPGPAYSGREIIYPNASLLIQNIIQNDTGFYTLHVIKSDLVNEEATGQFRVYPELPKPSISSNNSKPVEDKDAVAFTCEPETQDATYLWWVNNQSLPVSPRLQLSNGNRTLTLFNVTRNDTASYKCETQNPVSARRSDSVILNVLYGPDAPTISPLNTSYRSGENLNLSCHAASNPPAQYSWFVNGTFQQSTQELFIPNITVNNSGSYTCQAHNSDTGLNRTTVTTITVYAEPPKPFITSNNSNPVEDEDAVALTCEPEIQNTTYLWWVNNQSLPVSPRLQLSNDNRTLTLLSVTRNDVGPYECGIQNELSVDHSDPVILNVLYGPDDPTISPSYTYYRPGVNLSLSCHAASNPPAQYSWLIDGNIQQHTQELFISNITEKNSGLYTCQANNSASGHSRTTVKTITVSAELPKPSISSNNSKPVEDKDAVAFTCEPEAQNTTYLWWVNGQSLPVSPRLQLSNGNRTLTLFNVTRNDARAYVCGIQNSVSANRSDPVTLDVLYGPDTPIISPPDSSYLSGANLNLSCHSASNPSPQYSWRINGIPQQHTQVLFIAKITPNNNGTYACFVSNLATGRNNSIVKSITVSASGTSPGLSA
# T3: recombinant human CEACAM5 (human, UniProt P06731 35-685)
# T3 construct: also called hCEACAM-5; R&D Systems 4128-CM
# T3 sequence (looked up): T2 sequence (looked up)
# B1: 281F12-35GS-55A01 (bispecific antibody)
# chain: EVQLVESGGGLVQAGDSLRLSCAASGRAFSRYAMGWFRQAPGKEREFVAAIGWGPSKTNYADSVKGRFTISRDNAKNTVYLQMNTLKPEDTAVYSCAAKFVNTDSTWSRSEMYTYWGQGTLVTVSSGGGGSGGGGSGGGGSGGGGSGGGGSGGGGSGGGGSEVQLVESGGGSVQAGGSLRLSCTTSGRALNMYVMGWFRQAPGNEREFVAATSSSGGSTSYPDSVKGRFTISRDNAKNTVYLQMNSLKPEDTAAYRCAASPYVSTPTMNILEEYRYWGQGTLVTVSS
# notes: also called CXCR4#2-CD123#2; 281F12-55A01
# B2: 57A07-35GS-281F12 (bispecific antibody)
# chain: EVQLVESGGGLVQAGGSLRLSCAASGSIFSGNVMGWYRRQAPGKEREWVAAIASGGSIYYRDSVKGRFTISRDNAKNTVYLQMNSLKPEDTAVYYCNSHPPTLPYWGQGTLVTVSSGGGGSGGGGSGGGGSGGGGSGGGGSGGGGSGGGGSEVQLVESGGGLVQAGDSLRLSCAASGRAFSRYAMGWFRQAPGKEREFVAAIGWGPSKTNYADSVKGRFTISRDNAKNTVYLQMNTLKPEDTAVYSCAAKFVNTDSTWSRSEMYTYWGQGTLVTVSS
# notes: FLAG3-His6 also made; also called CD123#1-CXCR4#2; 57A07-281F12
# B3: CEA#1-35GS-ctrl (bispecific antibody)
# chain: EVQLVESGGGSVQAGGSLRLSCAASGDTYGSYWMGWFRQAPGKEREGVAAINRGGGYTVYADSVKGRFTISRDTAKNTVYLQMNSLRPDDTADYYCAASGVLGGLHEDWFNYWGQGTLVTVSSGGGGSGGGGSGGGGSGGGGSGGGGSGGGGSGGGGSDVQLQASGGGSVQAGGSLRLSCAASGYTIGPYCMGWFRQAPGKEREGVAAINMGGGITYYADSVKGRFTISQDNAKNTVYLLMNSLEPEDTAIYYCAADSTIYASYYECGHGLSTGGYGYDSWGQGTQVTVSS
# notes: also called BI#48; T023200048
# B4: CEA#5-35GS-ctrl (bispecific antibody)
# chain: B3 chain with K43Q, G47A, T74N, V79L
# notes: also called BI#51; T023200051
# B5: CEA#5 (VHH)
# VHH: EVQLVESGGGSVQAGGSLRLSCAASGDTYGSYWMGWFRQAPGQEREAVAAINRGGGYTVYADSVKGRFTISRDNAKNTLYLQMNSLRPDDTADYYCAASGVLGGLHEDWFNYWGQGTLVTVSS
# notes: also called T023200005; NbCEA5(K43Q, G47A, T73N, V78L)
# B6: CEA#1 (VHH)
# VHH: B5 VHH with Q43K, A47G, N74T, L79V
# notes: also called NbCEA5
# B7: 03F11-35GS-281F12 (bispecific antibody)
# chain: EVQLVESGGGSVQPGGSLTLSCGTSGRTFNVMGWFRQAPGKEREFVAAVRWSSTGIYYTQYADSVKSRFTISRDNAKNTVYLEMNSLKPEDTAVYYCAADTYNSNPARWDGYDFRGQGTQVTVSSGGGGSGGGGSGGGGSGGGGSGGGGSGGGGSGGGGSEVQLVESGGGLVQAGDSLRLSCAASGRAFSRYAMGWFRQAPGKEREFVAAIGWGPSKTNYADSVKGRFTISRDNAKNTVYLQMNTLKPEDTAVYSCAAKFVNTDSTWSRSEMYTYWGQGTQVTVSS
# notes: also called CD4#8-35GS-CXCR4#2; CD4#8-CXCR4#2
# B8: 281F12-9GS-03F11 (bispecific antibody)
# chain: EVQLVESGGGLVQAGDSLRLSCAASGRAFSRYAMGWFRQAPGKEREFVAAIGWGPSKTNYADSVKGRFTISRDNAKNTVYLQMNTLKPEDTAVYSCAAKFVNTDSTWSRSEMYTYWGQGTQVTVSSGGGSGGGGSEVQLVESGGGSVQPGGSLTLSCGTSGRTFNVMGWFRQAPGKEREFVAAVRWSSTGIYYTQYADSVKSRFTISRDNAKNTVYLEMNSLKPEDTAVYYCAADTYNSNPARWDGYDFRGQGTQVTVSS
# notes: also called CXCR4#2-9GS-CD4#8
# What was measured:
# [1] = molecular target: T4, human CXCR4 (on cells, viral lipoparticles or membrane extracts) (human, UniProt P61073 1-352); assay: cell-based or functional assay
# T4 sequence (P61073 whole entry): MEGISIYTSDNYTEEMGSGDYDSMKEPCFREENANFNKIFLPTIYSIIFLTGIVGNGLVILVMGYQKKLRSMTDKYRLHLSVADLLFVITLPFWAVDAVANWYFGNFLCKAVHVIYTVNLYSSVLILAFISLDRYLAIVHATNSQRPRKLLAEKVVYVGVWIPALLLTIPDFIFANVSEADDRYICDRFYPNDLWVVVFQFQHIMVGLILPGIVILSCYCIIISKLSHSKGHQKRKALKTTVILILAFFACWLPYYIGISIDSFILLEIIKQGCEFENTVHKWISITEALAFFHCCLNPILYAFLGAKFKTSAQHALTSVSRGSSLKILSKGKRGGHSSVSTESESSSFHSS
# [2] = molecular target: T5, CXCR4 and IL-3Rα (CD123) co-expressed on MOLM-13 / THP-1 cells (human, UniProt P61073 1-352; P26951 19-378); assay: flow cytometry on THP-1 cells (CXCR4 and IL-3Ra)
# T5 construct: whole, on cells; two separate membrane proteins on one cell, not a complex; target of bispecifics on double-positive cells; also called CXCR4+/CD123+ cells
# T5 sequence (P61073 whole entry, one chain of several): as the sequence (P61073 whole entry) above
# [3] = molecular target: T5, CXCR4 and IL-3Rα (CD123) co-expressed …; assay: flow cytometry on MOLM-13 cells (IL-3Ra higher than CXCR4)
# [4] = molecular target: T1, recombinant IL-3Rα ectodomain; assay: ELISA on recombinant IL-3Ra ectodomain (panel 'IL-3Ra ELISA', lower left)
# [5] = molecular target: T1, recombinant IL-3Rα ectodomain; assay: ELISA on recombinant IL-3Ra ectodomain (lower right panel)
# [6] = molecular target: T4, human CXCR4 (on cells, viral …); assay: ELISA on coated CXCR4 viral lipoparticles (panel 'CXCR4 VLP Binding', upper left)
# [7] = molecular target: T5, CXCR4 and IL-3Rα (CD123) co-expressed …; assay: flow cytometry at one concentration, 4.6 nM, on MOLM-13 cells (CXCR4+/CD123+), anti-FLAG detection
# [8] = molecular target: T2, human CEACAM5, cell-expressed; assay: FACS, LoVo cells
# [9] = molecular target: T3, recombinant human CEACAM5; assay: ELISA, coated CEACAM5
# [10] = molecular target: T2, human CEACAM5, cell-expressed; assay: FACS, LoVo cells; remark: listed apart in the source
# [11] = molecular target: T3, recombinant human CEACAM5; assay: ELISA, coated CEACAM5; remark: listed apart in the source
# [12] = molecular target: T3, recombinant human CEACAM5; assay: SPR Biacore T100, immobilised hCEACAM-5
# [13] = molecular target: T6, human EGFR, cell-expressed (human, UniProt P00533 25-1210); assay: flow cytometry on HER14 cells (EGFR only), anti-Flag detection
# T6 construct: whole, on cells; also called ErbB-1
# [14] = molecular target: T4, human CXCR4 (on cells, viral …); assay: cell-based or functional assay; remark: listed apart in the source
# [15] = molecular target: T7, CXCR4 and CD4 co-expressed on cells (MOLM-13, THP-1, MT-4, PBMC; Jurkat CD4 low) (human, UniProt P61073 1-352; P01730 26-458); assay: cell-based or functional assay
# T7 sequence (P61073 whole entry, chain 1 of 2, other chains not shown): as the sequence (P61073 whole entry) above
# [16] = molecular target: T7, CXCR4 and CD4 co-expressed on cells …; assay: cell-based or functional assay; remark: listed apart in the source
# [17] = molecular target: T7, CXCR4 and CD4 co-expressed on cells …; assay: cell-based or functional assay; remark: listed apart in the source
# [18] = molecular target: T7, CXCR4 and CD4 co-expressed on cells …; assay: FACS, MOLM-13 cells (CXCR4+/CD4+)
# [19] = molecular target: T7, CXCR4 and CD4 co-expressed on cells …; assay: FACS, Jurkat E6-1 cells (CXCR4+/CD4 low)
# [20] = molecular target: T7, CXCR4 and CD4 co-expressed on cells …; assay: flow cytometry on THP-1 cells (CD4 and CXCR4), detection via tag
# [21] = molecular target: T4, human CXCR4 (on cells, viral …); assay: ELISA on coated hCXCR4 lipoparticles against null lipoparticles at 100, 10, 1 and 0 nM, anti-c-myc detection
binder,measurement,setting,value
B1,"Fold inc. vs CXCR4#2, Jurkat E6-1",[1],1.13 fold
same,"Fold inc. vs CXCR4#2, MOLM-13",[1],10.9 fold
same,"IC50, CXCL-12 chemotaxis, Jurkat E6-1",[1],86 nM
same,"IC50, CXCL-12 chemotaxis, MOLM-13",[1],7.85 nM
same,EC50 (read off the curve),[2],~10 nM
same,EC50 (read off the curve),[3],~10 nM
same,EC50 (read off the curve),[4],~1 nM
B2,EC50 (read off the curve),[5],~0.5 nM
same,binding result,[6],binds
same,binding result,[7],binds
B3,EC50,[8],0.92 nM
same,EC50,[9],0.026 nM
B4,EC50,[8],2.6 nM
same,EC50,[9],0.11 nM
B5,EC50,[10],2.4 nM
same,EC50,[11],0.11 nM
same,Kd,[12],3.1 nM
same,koff,[12],0.0033 s⁻¹
same,kon,[12],1.1e+06 M⁻¹ s⁻¹
same,binding result,[13],no binding (tested: about 1E-7 M)
B6,EC50,[10],1 nM
same,EC50,[11],0.026 nM
same,Kd,[12],0.51 nM
same,koff,[12],0.00051 s⁻¹
same,kon,[12],990000 M⁻¹ s⁻¹
same,binding result,[13],no binding (tested: about 1E-7 M)
B7,"Fold increase vs CXCR4#2, Jurkat E6-1",[14],0.2 fold
same,"Fold increase vs CXCR4#2, MOLM-13",[14],67 fold
same,"IC50, SDF-1 chemotaxis, Jurkat E6-1",[14],460 nM
same,"IC50, SDF-1 chemotaxis, MOLM-13",[14],1.29 nM
same,"IC50, HIV-1 BaL (R5), PBMC",[15],35.9 nM
same,"IC50, HIV-1 NL4.3 (X4), MT-4",[15],11.7 nM
same,"IC50, HIV-1 NL4.3 (X4), PBMC",[15],23.7 nM
same,"IC50, HIV-1 NL4.3 (X4), U87",[15],> 3330 nM
same,"IC50, HIV-1 NL4.3 wt, MT-4",[16],6 nM
same,"IC50, NL4.3 2G12 res., MT-4",[16],3 nM
same,"IC50, NL4.3 AMD-3100 res., MT-4",[16],14 nM
same,"IC50, NL4.3 CD4#8 res., MT-4",[16],95.7 nM
same,"IC50, NL4.3 CXCL-12res., MT-4",[16],70 nM
same,"IC50, NL4.3 CXCR4#2 res, MT-4",[16],> 310 nM
same,"IC50, HIV-1 HE, MT-4",[17],2 nM
same,"IC50, HIV-1 NL4.3, MT-4",[17],6 nM
same,"IC50, HIV-2 ROD, MT-4",[17],8.75 nM
same,EC50,[18],0.7 nM
same,EC50,[19],1.1 nM
same,EC50 (read off the curve),[20],~1 nM
B8,"IC50, HIV-1 NL4.3 (X4), MT-4",[15],0.2 nM
same,"IC50, HIV-1 NL4.3 (X4), PBMC",[15],0.03 nM
same,"IC50, HIV-1 NL4.3 (X4), U87",[15],0.53 nM
same,binding result,[21],binds
